# Test results from patent publication US20190022245A1.
# Biological target: epidermal growth factor receptor (EGFR) on cells (human (on human cell lines)) (UniProt P00533)
# Assay: cell-based or functional assay
binder,measurement,value
"h15-2b Fab × EGFR scFv (monovalent anti-mPEG (h15-2b) anti-EGFR BsAb, example 2.3) (bispecific antibody, part only; not given: nothing essential named, not shown: another chain or arm of the molecule; ; small tags and cut ends) light: DIQMTQSPSSLSASVGDRVTITCKASQDVNTSVAWYQQKPGKAPKLLIYWASTRHTGVPSRFSGSGSGTDFTFTISSLQPEDIATYYCLQYINYPYTFGQGTKLEIKRTVAAPSVFIFPPSDEQLKSGTASVVCLLNNFYPREAKVQWKVDNALQSGNSQESVTEQDSKDSTYSLSSTLTLSKADYEKHKLYACEVTHQGLSSPVTKSFNRGEC heavy: EVQLVESGGGLVQPGGSLKLSCAASGFTFSNYWMNWVRQASGKGLEWVGEIRSKSNNYATHYAESVKGRFTISRDDSKNTAYLQMNSLKTEDTAVYYCSNRYYWGQGTLVTVSSASTKGPSVFPLAPCSRSTSESTAALGCLVKDYFPEPVTVSWNSGALTSGVHTFPAVLQSSGLYSLSSVVTVPSSNFGTQTYTCNVDHKPSNTKVDKTVERKGEQKLISEEDLGGGGSGGGGSGGGGSQLDIVMTQSPLSLPVTPGEPASISCRSSQNIVHNNGITYLEWYLQKPGQSPQLLIYKVSDRFSGVPDRFSGSGSGTDFTLKISRVEAEDVGVYYCFQGSHIPPTFGQGTKVEIKRAGGGGSGGGGSGGGGSQVQLVQSGAEVKKPGASVKVSCKASGYTFTSYWMHWVRQAPGQGLEWMGNIYPGSGGTNYAEKFKNRVTMTRDTSISTAYMELSRLRSDDTAVYYCARSGGPYFFDYWGQGTLVTVSS","region of interest (ROI) ratio of SW480 (EGFR+) to SW620 (EGFR-) tumors, 24 h",2.04
same,"region of interest (ROI) ratio of SW480 (EGFR+) to SW620 (EGFR-) tumors, 48 h",2.32
same,"region of interest (ROI) ratio of SW480 (EGFR+) to SW620 (EGFR-) tumors, 72 h",2.33
